The labels stand for the following.
B1: TPR 5TU (parent)
chain: GGAUCUUCUCGAUCUAACAAAAAAGACAAAUCUGCCACAAAGCUUGAGAGCAUCUUCGGAUGCAGAGGCGGCAGCCUUCGGUGGCGCGAUAGCGCCAACGUUCUCAACUAUGACACGCAAAACGCGUGCUCCGUUGAAUGGAGUUUAUCAUG

This sample holds only a part of the variants without activity.

In this data set the parent is B1. Nature of the data set: polymerase ribozyme fitness, log enrichment relative to wild type (log ratio); higher = more active; in vitro selection for triplet polymerase activity. An outline of the steps:
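Genotype fitness is the logarithm of its enrichment divided by wild-type enrichment, using inverse-variance-weighted averages of replicates. That logarithm is base 2. Enrichment was measured by Illumina sequencing of input and output libraries from one triplicate in vitro selection round, with frozen incubation at −7 °C, on PCR-built, transcribed mutant libraries of each subunit of a heterodimeric triplet polymerase ribozyme, retaining genotypes with ≥10 input reads and ≥1 read per output.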
As to GGAUCUUCUCGAUCUAACAAAAAAGACAAAUCUGCCACAAAGCUUGAGAGCAUCUUCAGAUGCAGAGGCGGCAGCCUUCGGUGGCGGGAUAGCGCCAACGUUCUCAACUAUGACACGCAAAACGCGUGCUCCGUUGAAUGGCGUUUAUCAUG [G58A C87G A142C], the “polymerase ribozyme fitness (log ratio)” value was at most -4.2.

Regarding GGAUCUUCUCGAUCUAACAAAAAAGACAAAUCUGCCACAAAGCUUGAGAGCAUCUUUGGAUGCAGAGGCGGCAGCCUUCGGUGGCGCGAUAGCGCCAACGUUCUCAACUAUGACACCCAAAGCGCGUGCUCCGUUGAAUGGAGUUUAUCAUG [C57U G117C A122G], the “polymerase ribozyme fitness (log ratio)” value came out at 0.204.

For GGAUCUUCUCGAUCUAACAAAAAAGACAAAUCUGCCACAAAGCUUGAGAGCAUCUUCAGAUGCAGAGGCGGCAGCCUUCGGUGGCGGGAUAGCGCCAACGUUCUCAACUAUGACAAGCAAAACGCGUGCUCCGUUGAAUGGAGUUUCUCAAG [G58A C87G C116A A147C U151A], the “polymerase ribozyme fitness (log ratio)” value was at most -4.2.

For the variant GGAUCUUCUCGAUCUAACAAAAAAGACAAAUCUGCCACAAAGCUUGAGAGCAUCUUCAGAUGCAGAGGCGGCAGCCUUCGGUGGCGCGAUAGCGUCAACGUUCUCAACUAUGACACGCAAAACGCGUGCUCCGUUGAAUGGACUUUAUCAUG [G58A C95U G143C], the “polymerase ribozyme fitness (log ratio)” value is -1.9.

As to GGAUCUUCUCGAUCUAACAAAAAAGACAAAUCUGCCACAAAGCUUGAGAGCAUCUUCAGAUGCAGAGGCGGCAGCCUUUGGUGGCGCGAUAGCGCCAACGUUCUCAACUAUGACACGCAAAACGCGUGCUCCGUUGAAUGGAGUUUAUCAUG [G58A C79U], the “polymerase ribozyme fitness (log ratio)” value is -1.65.

GGAUCUUCUCGAUCUAACAAAAAAGACAAAUCUGCCACAAAGCUUGAGAGCAUCUUCAGAUGCAGAGGCGGCAGCCUUCGGUAGCGUGAUAGCGCCAACGGUCUCAACUAUGACACGCAAAACGCGUGCUCCGUUGAAUGCAGUUUAUCAUG [G58A G83A C87U U101G G141C]: the “polymerase ribozyme fitness (log ratio)” value was -3.39.

Take GGAUCUUCUCGAUCUAACAAAAAAGACAAAUCUGCCACAAAGCUUGAGAGCAUCUUCAGAUGCAGAGGCGGCAGCCUUCGGUGGCGCGAUAGCGCCAACGUUCUCAUCUAUGACACGCAAAACGCUUGCUCCGUUGAAUGGAGUUUAUGAUG [G58A A107U G126U C149G]: the “polymerase ribozyme fitness (log ratio)” value is at most -4.2.

Take GGAUCUUCUCGAUCUAACAAAAAAGACAAAUCUGCCACAAAGCUUGAGAGCAUCUUUGGAUGCAGAGGCGGCAGCCUUCGGUGUCGCGAUAGCGCCAACGUUCUCAACUAUGACACGCAAAACGCCUGCUCCGUUGAAUGGAGUUUAUCAUG [C57U G84U G126C]: the “polymerase ribozyme fitness (log ratio)” value was -0.969.

For the variant GGAUCUUCUCGAUCUAACAAAAAAGACAAAUCUGCCACAAAGCUUGAGAGCAUCUUCAGAUGCAGAGGCGGUAGCGUUCGGUGGCGCGAUAGCGCCAAGGUUCUCAACUCUGACACGCAAAACGCGUGCUCCGUUGAAUGGAGUUUAUCAUG [G58A C72U C76G C99G A110C], the “polymerase ribozyme fitness (log ratio)” value is at most -4.2.

Take GGAUCUUCUCGAUCUAACAAAAAAGACAAAUCUGCCACAAAGCUUGAGAGCAUCUUCAGAUGCAGAGGCGGCAGCUUUCGGUGGCGCGAUAGCGCCAACGGUCUCAACUAUGACACGCAAAACGCGUGCUCCGUUGAAUGGAGUUUAUCAUG [G58A C76U U101G]: the “polymerase ribozyme fitness (log ratio)” value stood at 0.481.

As to GGAUCUUCUCGAUCUAACAAAAAAGACAAAUCUGCCACAAAGCUUGAGAGCAUCUUUGGAUGCAGAGGCGGCAGCCUUCGGUGGCGCGAUAGCGCCAACGUGCUCAACUAUGACACGCAAAACGCGUGCUCCGUUGAAUGGAGUUUAUCAUG [C57U U102G], the “polymerase ribozyme fitness (log ratio)” value is -1.87.

In the case of GGAUCUUCUCGAUCUAACAAAAAAGACAAAUCUGCCACAAAGCUUGAGAGCAUCUUUGGAUGCAGAGGCGGCAGCCUUCGGUGGCACGAUAGCGCCAACGUUCUCAACUAUGACACGCAGAACGCGUGCUCCGUUGAAUGCAGUUUAUCAUG [C57U G86A A120G G141C], the “polymerase ribozyme fitness (log ratio)” value is -2.82.

Take GGAUCUUCUCGAUCUAACAAAAAAGACAAAUCUGCCACAAAGCUUGAGAGCAUCUUCAGAUGCAGAGGCGGCAGCCUUCGGUGGCGCGAUAGCGCUAACGUUCUCAACUAUGACACGCAAAACGCGUGCUCCGUUGAAUGGAGUUUAUCAUG [G58A C96U]: the “polymerase ribozyme fitness (log ratio)” value is 0.538.

Regarding GGAUCUUCUCGAUCUAACAAAAAAGACAAAUCUGCCACAAAGCUUGAGAGCAUCUUCAGAUGCAGAGGCGUCAGCCUUCGGUGGCGCGAUAGCGCCAACGUUCUCAACUAUGACACGCAAAACGCGUGCUCCGUUGAAUGGAGUUUAUCAUG [G58A G71U], the “polymerase ribozyme fitness (log ratio)” value was -0.673.

For the variant GGAUCUUCUCGAUCUAACAAAAAAGACAAAUCUGCCACAAAGCUUGAGAGCAUCUUCAGAUGCAGAGGCGGCAGCCUUCGGUGGCGCGGUAGCACCAACGUUCUCAACUAUGACACGCAAAACGCGUGCUCCGUUGAAUGGAGUUUAUCAUG [G58A A89G G94A], the “polymerase ribozyme fitness (log ratio)” value was -1.91.

For the variant GGAUCUUCUCGAUCUAACAAAAAAGACAAAUCUGCCACAAAGCUUGAGAGCAUCUUUGGAUGCAGAGGCGGCAGCCUUCGGUGGCACGAUAGCGCCAUCGUUCUCAACUAUGACACGCAAAACGCGUGCUCCGUUGAAUGGAGUUUAUCAUG [C57U G86A A98U], the “polymerase ribozyme fitness (log ratio)” value was -1.55.

GGAUCUUCUCGAUCUAACAAAAAAGACAAAUCUGCCACAAAGCUUGAGAGCAUCUUUGGAUGCAGAGGCGGCAGCCUUCGGUGGCGCGAUAGCGCCAACGUUCUCAACUAUGACACGCAAAACUCGUUCUCCGUUGAAUGGAGUUUAUCAUG [C57U G124U G128U]: the “polymerase ribozyme fitness (log ratio)” value is -3.76.

For GGAUCUUCUCGAUCUAACAAAAAAGACAAAUCUGCCACAAAGCUUGAGAGCAUCUUUGGAUGCAGAGGCGGCAGCCUUCGGUGGCGCGAUAGCGCCAACGUUCUCAACUAUGACACGCAAAACGCAUGCUCCGUUGAUUGGAGUUUAUCAUG [C57U G126A A138U], the “polymerase ribozyme fitness (log ratio)” value was -3.43.

Take GGAUCUUCUCGAUCUAACAAAAAAGACAAAUCUGCCACAAAGCUUGAGAGCAUCUUCAGAUGCAGAGGCGGCAGCCUUCGGUGGCGCGAUAGCGUCAACGUUCUCAACUAUGACACGCAAAACGCGUGCUCCGUUGAAUGGAGUUUAUCAUG [G58A C95U]: the “polymerase ribozyme fitness (log ratio)” value was -0.535.

The values above are taken from the RNAGym collection of RNA variant scans (doi:10.1073/pnas.2313332121).
